Laboratory results reported in the supplement of paper PMC9170038.

Columns and labels:
[1] = test system: K4 kissing-loop RNA reporter; assay: apparent KD of K4 kissing-loop reporter; higher = weaker reporter binding; conditions: Eterna round: R107;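 note: bound reporter read as fluorescence of individual clusters on recovered sequencing chips by microscopy, with normalized cluster intensities fitted with a binding model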
Experimental: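 RNA-MaP round R107: designed RNA switches with theophylline, tryptophan, arginine or FMN aptamers are transcribed on-chip within common flanks. They are titrated with a labelled K4 kissing-loop RNA reporter in RNA-MaP buffer (100 mM Tris pH 7.5, 80 mM KCl, 4 mM MgCl2), without ligand or with the indicated ligand. Median apparent KD per design.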

[2] = test system: MS2 coat protein; assay: apparent KD of MS2 coat protein; designed switch direction (-1 OFF switch, 1 ON switch): -1; higher = weaker reporter binding
Outline: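 Designed RNA switches with common flanks were transcribed on Illumina chips by stalled E. coli RNA polymerase and titrated with SNAP-549-labelled MS2 coat protein, from 0.7 or 1.5 nM doubling to 3 µM, in Tris-HCl pH 7.5 buffer with KCl, MgCl2, BSA, DTT, tRNA and Tween-20. Steps lasted 0.8–1.5 h (lowest) to 10–20 min (highest). Titrations ran without input, with 200 uM small-molecule ligand, or with an oligonucleotide input. Normalised cluster fluorescence was curve-fitted, and apparent KD is the per-design median over clusters.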

[3] = input ligand: theophylline 20 uM
[4] = input ligand: tryptophan 2.4 mM
[5] = Eterna round: R95, input ligand: FMN 200 uM
[6] = Eterna round: R95, input ligand: microRNA oligo, concentration not stated
[7] = Eterna round: R95, input ligand: none
[8] = input ligand: microRNA oligo, concentration not stated

| Sequence | apparent KD of K4 kissing-loop reporter ([1]; input ligand: FMN 200 uM) | apparent KD of K4 kissing-loop reporter ([1]; input ligand: arginine 13.2 mM) | apparent KD of K4 kissing-loop reporter ([1]; input ligand: none) | apparent KD of K4 kissing-loop reporter [1, 3] | apparent KD of K4 kissing-loop reporter [1, 4] | apparent KD of MS2 coat protein [2, 6] | further results |
| --- | --- | --- | --- | --- | --- | --- | --- |
| AAAUGUUUGUAUUUGAACAAUUUCCUUAGAGAGGAUAUUGGUAAUACAAGAAGGCUCUGAUGGGAGUGAUGUUCCCAUAACGCGG [Exclusion FMN A GF14] | 110 nM | 114 nM | 119 nM | 126 nM | 91 nM | – | – |
| AAAUUUAAUAUAUUUAAUUAAUUAUGUGAUACCAGACAUUAAUAAGUCCCUUGGCAGCACAAUGCAGUGAUGUUGCAUAUAAUAA [JR_SSTheophyA_Sub011] | 69.4 nM | 115 nM | 73.5 nM | 84.8 nM | 65.4 nM | – | – |
| AAAUUUAUAUUAGAUACCAGCAUAUUGAAAGUUUAUUAUGACAAGAGUGAUGUUCUUGUAUGCCCUUGGCAGCUGGUAUGGGUUU [KL-XTheo-B25] | 114 nM | 107 nM | 104 nM | 110 nM | 110 nM | – | – |
| AACAAGGGAUGUCAGUGAUGUUGUACGUCGCGAGGACCGGUACGGCCGCCACUCGUAAUACACAGAUGAGGGUUCUUUCUCUGAU [theeternabot_sameState_KL_Trp_A_49] | 305 nM | 179 nM | 268 nM | 265 nM | 228 nM | – | – |
| AACCACUCGUUACAUCACUAUCGAGUGGAACGAGGACCGGUACGGCCGCCACUCGAUAAGAUGCAGUGAUGUUGCAUCUAAGAAU [KL-SSTryp-A (BrourdMod)5 #dotplot2 strengthened] | 208 nM | 168 nM | 183 nM | 192 nM | 141 nM | – | – |
| AACGACUGGAUGAAUAACAUCUAGUCGAUUCGAGGACCGGUACGGCCGCCACUCGAGCUAACUGCGAGUGAUGUUCGAUAAUAAA [#OpenEnded 3] | 347 nM | 433 nM | 390 nM | 524 nM | 96.6 nM | – | – |
| AACGCUUGAAUAACAAGCGAAAUAAAUUCGCGAGGACCGGUACGGCCGCCACUCGCUAACUGCGAGUGAUGUUCGAUAAUAAAAU [Mat - Mod of OpenEnded 3 - D15] | 103 nM | 66.1 nM | 136 nM | 234 nM | 71 nM | – | – |
| UUUGUACAUGAGGAUCACCCAUGUCAGGAUAUGUCAUCGCCGUUUCCCAGCCGGCGUCACAGAAGGGACAUGCA [EX1 C.5] (Eterna round: R97, puzzle: Exclusion 1) | – | – | – | – | – | – | apparent KD of MS2 coat protein ([2]; input ligand: FMN 200 uM): 56.6 nM; apparent KD of MS2 coat protein ([2]; input ligand: none): 26.2 nM |
| UUUUAACAUGAGGAUCACCCAUGUAAGGAUAUGCUAUUUUUUUUUUUUUUUUUUUUUUGCAGAAGGUACAUUUU [My solution] (puzzle: Exclusion 1) | – | – | – | – | – | 21.3 nM | apparent KD of MS2 coat protein [2, 5]: 33.8 nM; apparent KD of MS2 coat protein [2, 7]: 21.6 nM |
| UUUUAACAUGAGGAUCACCCAUGUGAGGAUAUCGAAAUUUAUAUUAAUAUUUAUAAAUCGAGAAGGCACAUUUU [JMF 52] (puzzle: Exclusion 1) | – | – | – | – | – | 139 nM | – |
| UUUUAACAUGAGGAUCACCCAUGUGAGGAUAUCGAAAUUUAUAUUAAUAUUUAUAUUUCGAGAAGGCACAUUUU [JMF 57] (puzzle: Exclusion 1) | – | – | – | – | – | 153 nM | – |
| UUUUAACAUGAGGAUCACCCAUGUGAGGAUAUCGAAAUUUUUAUUAAUAUUAAUAAAACGAGAAGGCACAUUUU [JMF 12] (puzzle: Exclusion 1) | – | – | – | – | – | 58.3 nM | – |
| UUUUAACAUGAGGAUCACCCAUGUGAGGAUAUCGUAUUUUAUAUUAAUAUUAAUAAAACGAGAAGGCACAUUUU [JMF 9] (puzzle: Exclusion 1) | – | – | – | – | – | 25.4 nM | apparent KD of MS2 coat protein [2, 5]: 28.4 nM; apparent KD of MS2 coat protein [2, 7]: 29.5 nM |
| UUUUAACAUGAGGAUCACCCAUGUGAGGAUAUGAUUUUUUUUUUUUUUUUUUUUUUUUUCAGAAGGCACAUUUU [My solution] (puzzle: Exclusion 1) | – | – | – | – | – | 64.3 nM | apparent KD of MS2 coat protein [2, 5]: 18 nM; apparent KD of MS2 coat protein [2, 7]: 42.4 nM |
| UUUUACUCAGGAUAUAUGAUGUGAAACAUGAGGAUCACCCAUGUAAUAUUAUGGAUGUAAAUAGAAGGGAGAUUUA [Mat - Exclusion 5 - JL mod - D16] (puzzle: Exclusion 5) | – | – | – | – | – | 45.5 nM | apparent KD of MS2 coat protein [2, 5]: 46.4 nM; apparent KD of MS2 coat protein [2, 7]: 59.5 nM |
| UUUUAGAGAGGAUAUAUAUAGUGAAACAUGAGGAUCACCCAUGUAAUUAUAUGGAUGUAAAUAGAAGGCUCAUUUA [JL-ex5-3.02] (puzzle: Exclusion 5) | – | – | – | – | – | 31.1 nM | apparent KD of MS2 coat protein [2, 5]: 35.7 nM; apparent KD of MS2 coat protein [2, 7]: 30.7 nM |
| UUUUAGAGAGGAUAUAUUUAGUGAAACAUGAGGAUCACCCAUGUAAUUAAAUGGAUGUAAAUAGAAGGCUCAUUUA [Mat - Exclusion 5 - JL mod - D6] (puzzle: Exclusion 5) | – | – | – | – | – | 23.7 nM | apparent KD of MS2 coat protein [2, 5]: 22.9 nM; apparent KD of MS2 coat protein [2, 7]: 26.4 nM |
| UUUUAGGUAGGAUAUACAUUUUUUUUAUUAUCCUCAUUAUUACAUGAGGAUCACCCAUGUAGAAGGACCAUUUU [My Design] (puzzle: Exclusion 2) | – | – | – | – | – | 181 nM | – |
| UUUUUAUAUGAAGGAUAUACUUAACAUGAGGAUCACCCAUGUGGUGUUGUGAGUGAGUGAGUUUAGUAGAAGGUCAACGAUUUU [JMF's solution 58] (Eterna round: R96, puzzle: Exclusion NG 2) | – | – | – | – | – | – | apparent KD of MS2 coat protein ([2]; input ligand: FMN 200 uM): 810 nM; apparent KD of MS2 coat protein [2, 8]: 322 nM; apparent KD of MS2 coat protein ([2]; input ligand: none): 421 nM |
| UUUUUAUAUGAAGGAUAUACUUAACAUGAGGAUCACCCAUGUGGUGUUGUGAGUGAGUGAGUUUAGUAGAAGGUCAAGGAUUUU [JMF's solution 35] (Eterna round: R96, puzzle: Exclusion NG 2) | – | – | – | – | – | – | apparent KD of MS2 coat protein ([2]; input ligand: FMN 200 uM): 598 nM; apparent KD of MS2 coat protein [2, 8]: 456 nM; apparent KD of MS2 coat protein ([2]; input ligand: none): 161 nM |
| UUUUUAUAUGAAGGAUAUACUUAACAUGAGGAUCACCCAUGUGGUGUUGUGAGUGAGUGAGUUUAGUAGAAGGUCAAUGAUUUG [JMF's solution 63] (Eterna round: R96, puzzle: Exclusion NG 2) | – | – | – | – | – | – | apparent KD of MS2 coat protein ([2]; input ligand: FMN 200 uM): 894 nM; apparent KD of MS2 coat protein [2, 8]: 237 nM; apparent KD of MS2 coat protein ([2]; input ligand: none): 563 nM |
| UUUUUAUAUGAAGGAUAUACUUAACAUGAGGAUCACCCAUGUGGUGUUGUGAGUGAGUGAGUUUAGUAGAAGGUCAAUUAUUAU [JMF's solution 15] (Eterna round: R96, puzzle: Exclusion NG 2) | – | – | – | – | – | – | apparent KD of MS2 coat protein ([2]; input ligand: FMN 200 uM): 719 nM; apparent KD of MS2 coat protein [2, 8]: 390 nM; apparent KD of MS2 coat protein ([2]; input ligand: none): 271 nM |
| UUUUUGUCAGGAUAUGAGUAGUAGAACAAUAGUACUACUACUCAGAAGGGACAUGAGGAUCACCCAUGUUCCUC [Fiskers Ex 4 Super stable 44 mod 18] (puzzle: Exclusion 4) | – | – | – | – | – | 14.4 nM | – |
